Experimental data: patent US20240383958A1, “APELIN RECEPTOR AGONISTS AND USES THEREOF” (VISTERRA, INC., priority 2023, published 2024)
Where a chain is given by its changes, count along the chain named. Numbers in names are those of the source.

T1: APJ-eGFP fusion protein on CHO-M1 cells (UniProt P35414 1-380)
T1 sequence (looked up): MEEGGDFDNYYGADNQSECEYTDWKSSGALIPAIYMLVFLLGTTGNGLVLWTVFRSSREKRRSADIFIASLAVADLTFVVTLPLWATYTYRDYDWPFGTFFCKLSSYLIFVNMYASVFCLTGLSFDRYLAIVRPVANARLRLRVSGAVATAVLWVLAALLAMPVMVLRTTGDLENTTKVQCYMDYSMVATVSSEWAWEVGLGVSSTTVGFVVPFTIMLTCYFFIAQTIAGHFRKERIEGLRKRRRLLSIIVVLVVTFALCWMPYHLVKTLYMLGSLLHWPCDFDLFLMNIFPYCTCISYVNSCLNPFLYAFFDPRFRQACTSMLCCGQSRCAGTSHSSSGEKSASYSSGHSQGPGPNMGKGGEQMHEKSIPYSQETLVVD

T2: apelin receptor (AGTRL1) on CHO-K1 cells (UniProt P35414 1-380, limits assumed)
T2 sequence (looked up): T1 sequence (looked up)

T3: apelin receptor (AGTRL1) (Homo sapiens, UniProt P35414)
T3 construct: host or cells: CHO-K1
T3 sequence (P35414 1-380): T1 sequence (looked up)

B1: APL-A (Fc fusion)
chain: DKTHTSPPSPAPEAAGGPSVFLFPPKPKDTLMISRTPEVTCVVVDVSHEDPEVKFNWYVDGVEVHNAKTKPREEQYNSTYRVVSVLTVLHQDWLNGKEYKCKVSNKALPAPIEKTISKAKGQPREPQVYTLPPSREEMTKNQVNLTCLVKGFYPSDIAVEWESNGQPENNYKTTPPVLDSDGSFFLNSTLTVDKSRWQQGNVFSCSVMHEALHNHYTQKSLSLSPGKGGGGSGGGGSGGGGSQRPRLSHKGPMPF
B2: APL-B (Fc fusion)
chain: B1 chain with P254V
B3: APL-E (Fc fusion)
chain: B1 chain with M253H
B4: APL-F (Fc fusion)
chain: B1 chain with M253A, F255Y
B5: APL-G (Fc fusion)
chain: B1 chain with P254A
B6: APL-H (Fc fusion)
chain: B1 chain with P254H, F255W
B7: APL-I (Fc fusion)
chain: B1 chain with M253A, P254A, F255W
B8: APL-J (Fc fusion)
chain: B1 chain with M253A, P254A, F255Y
B9: APL-K (Fc fusion)
chain: B1 chain with S248Q, G251N, P254A
B10: APL-L (Fc fusion)
chain: B1 chain with S248Q, G251N, P254A, F255W
B11: APL-M (Fc fusion)
chain: B1 chain with K250W, P254A, F255W
B12: ELA-A (Fc fusion)
chain: DKTHTSPPSPAPEAAGGPSVFLFPPKPKDTLMISRTPEVTCVVVDVSHEDPEVKFNWYVDGVEVHNAKTKPREEQYNSTYRVVSVLTVLHQDWLNGKEYKCKVSNKALPAPIEKTISKAKGQPREPQVYTLPPSREEMTKNQVNLTCLVKGFYPSDIAVEWESNGQPENNYKTTPPVLDSDGSFFLNSTLTVDKSRWQQGNVFSCSVMHEALHNHYTQKSLSLSPGKGGGGSGGGGSGGGGSKLRKHNCLQRRCMPLHSRVPFP
B13: ELA-B (Fc fusion)
chain: B12 chain with R245N
B14: ELA-C (Fc fusion)
chain: B12 chain with P256I
B15: ELA-D (Fc fusion)
chain: B12 chain with S259Q
B16: ELA-E (Fc fusion)
chain: B12 chain with S259R
B17: ELA-F (Fc fusion)
chain: B12 chain with Q251K
B18: ELA-G (Fc fusion)
chain: B12 chain with R260Y
B19: ELA-H (Fc fusion)
chain: B12 chain with L257Y
B20: ELA-K (Fc fusion)
chain: B12 chain with Q251I
B21: ELA-L (Fc fusion)
chain: B12 chain with L250A, Q251T
B22: ELA-J: Fc-linker fusion of elabela analogue KLRKHNCLQERCMPLHSRVPFP (R10E) (protein)
chain: MRAWIFFLLCLAGRALADKTHTSPPSPAPEAAGGPSVFLFPPKPKDTLMISRTPEVTCVVVDVSHEDPEVKFNWYVDGVEVHNAKTKPREEQYNSTYRVVSVLTVLHQDWLNGKEYKCKVSNKALPAPIEKTISKAKGQPREPQVYTLPPSREEMTKNQVNLTCLVKGFYPSDIAVEWESNGQPENNYKTTPPVLDSDGSFFLNSTLTVDKSRWQQGNVFSCSVMHEALHNHYTQKSLSLSPGKGGGGSGGGGSGGGGSKLRKHNCLQERCMPLHSRVPFP
B23: APL-M: Leader-Fc-linker fusion of apelin analogue QRPRLSHWGPMAW (K8W, P12A, F13W) (protein)
chain: MRAWIFFLLCLAGRALADKTHTSPPSPAPEAAGGPSVFLFPPKPKDTLMISRTPEVTCVVVDVSHEDPEVKFNWYVDGVEVHNAKTKPREEQYNSTYRVVSVLTVLHQDWLNGKEYKCKVSNKALPAPIEKTISKAKGQPREPQVYTLPPSREEMTKNQVNLTCLVKGFYPSDIAVEWESNGQPENNYKTTPPVLDSDGSFFLNSTLTVDKSRWQQGNVFSCSVMHEALHNHYTQKSLSLSPGKGGGGSGGGGSGGGGSQRPRLSHWGPMAW
B24: APL-A: Monovalent IgG1 Fc fused via GGGGSGGGGSGGGGS linker to wild-type apelin-13 QRPRLSHKGPMPF (protein)
chain: B23 chain with W267K, A271P, W272F

What was measured:
[1] = target: T1, APJ-eGFP fusion protein on CHO-M1 cells; experiment: cell-based or functional assay
[2] = target: T2, apelin receptor (AGTRL1) on CHO-K1 cells; experiment: cell-based or functional assay
apelin receptor (AGTRL1) = target: T3, apelin receptor (AGTRL1); experiment: PathHunter beta-arrestin signaling assay; assay type: cell-based; settings: Exp. 2; PathHunter CHO-K1 AGTRL1 β-arrestin cells
Description: In this example, commercially available HitHunter® cAMP assay was used to determine the effect of apelin receptor agonists on Gai signaling, measured cAMP depletion. Next, commercially available PathHunter® beta-arrestin assay was used to determine the effect of apelin receptor agonists on beta-arrestin signaling. Additionally, the effect of apelin receptor agonists on ERK signaling was determined.
In a 384-well plate (Corning #3897), PathHunter® CHO-K1 AGTRL1 β-arrestin cells (Eurofins DiscoverX #93-0250C2) were seeded at 5×10^3 cells/well in 20 μL AssayComplete Cell Plating 2 Reagent (Eurofins DiscoverX #93-0563R2A) and were incubated overnight at 37° C. with 5% CO2. On the following day, the plate was treated with 5 μL/well of compounds serially diluted in 1×PBS+0.1% BSA buffer and was incubated for 1.5 hr at 37° C. with 5% CO2. Then, 12.5 μL/well of detection solution was added, prepared as instructed in the PathHunter® Detection Kit (Eurofins DiscoverX #93-0001), the plate was wrapped in foil, and was incubated at room temperature. Plates were read after 1-2 hr of incubation on a standard luminescence plate reader. In this assay, low levels of β-arrestin in cells were directly related to low luminescence signal. Using Four Parameter Logistic Regression for curve fitting, the raw data file was processed into S-shaped dose-response curves from which values, such as the EC50, Hill Slope, and Emax, were quantified.

[3] = Proteolysis during production detected using mass spectroscopy; assay type: physicochemical; settings: proteolytic stability
Text: Proteolysis during production was detected using mass spectroscopy, which provides insights into the proteolytic stability of the apelin receptor agonists.

APJ-eGFP fusion protein = experiment: Internalization assay, CHO-M1 cells expressing APJ-eGFP, high-content imaging; assay type: cell-based; set-up: key: 0: No Internalization; >1000; 2: 100-1000; 3: 10-100; 4: <10; settings: lowest concentration at which maximum internalization was observed; 0.914 nM to 2000 nM
Description: In this example, the internalization of exemplary apelin receptor agonist was assessed. CHO-M1 cells expressing an APJ-eGFP fusion protein were stained and plated in a 96-well plate. Apelin receptor agonists were serially diluted and added to the wells at concentrations ranging from 0.914 nM to 2000 nM. The cells were later imaged using an Operetta CLS™ high-content analysis system. APJ-eGFP signal was measured in the membrane and cytoplasmic region, and the ratio of membrane signal to total signal was calculated (E ratio). An internalization score was assigned based on the lowest concentration of the compound at which maximum internalization was observed. The internalization score for each apelin receptor agonist was plotted against the EC50 values for cAMP signaling and beta-arrestin signaling as shown in FIG. 2 and FIG. 3.

| Molecule | Internalization Score [1] | beta-Arrestin EC50 (nM) Exp. 1 [2] | beta-Arrestin EC50 (nM) Exp. 2 [2] | cAMP EC50 (nM) Exp. 1 [2] | cAMP EC50 (nM) Exp. 2 [2] | also measured |
| --- | --- | --- | --- | --- | --- | --- |
| B1 | 2 | – | – | – | – | – |
| B2 | 2 | – | – | – | – | – |
| B3 | 1 | – | – | – | – | – |
| B4 | 1 | – | – | – | – | – |
| B5 | 3 | – | – | – | – | – |
| B6 | 0 | – | – | – | – | – |
| B7 | 1 | – | – | – | – | – |
| B8 | 1 | – | – | – | – | – |
| B9 | 0 | – | – | – | – | – |
| B10 | 0 | – | – | – | – | – |
| B11 | 0 | – | – | – | – | – |
| B12 | 3 | 90.1 nM | 42.6 nM | 0.85 nM | 1.4 nM | ERK EC50 [2]: 0.19 nM |
| B13 | 3 | 1120 nM | 59.9 nM | 0.349 nM | 1.5 nM | ERK EC50 [2]: 0.92 nM |
| B14 | 2 | 535 nM | 75.1 nM | 0.577 nM | 1 nM | ERK EC50 [2]: 1.13 nM |
| B15 | 1 | – | 922 nM | 10.7 nM | 4.4 nM | – |
| B16 | 0 | – | 352 nM | 4.42 nM | 2.4 nM | – |
| B17 | 3 | 9.59 nM | 43.5 nM | 1.01 nM | 1 nM | – |
| B18 | 1 | 89.1 nM | 521 nM | 9.91 nM | 14.3 nM | – |
| B19 | 2 | 21.9 nM | 97.5 nM | 10 nM | 5.8 nM | – |
| B20 | 2 | 3.45 nM | 12.2 nM | 4.76 nM | 5.7 nM | – |
| B21 | 2 | 7.54 nM | 6.9 nM | 0.632 nM | 2.8 nM | – |
| B22 | – | – | – | – | – | beta-Arrestin EC50 (nM) Exp. 2 (apelin receptor (AGTRL1)): Weak; Proteolysis During Production? [3]: Yes |
| B23 | – | – | – | – | – | Internalization Score (APJ-eGFP fusion protein): 0; Proteolysis During Production? [3]: No |
| B24 | – | – | – | – | – | Internalization Score (APJ-eGFP fusion protein): 2 (100-1000); Proteolysis During Production? [3]: Yes |
